Measurements reported in the supplement of paper PMC7125110.
± gives the standard error. For some of these results: This sample holds only a part of the variants without activity.

B1: glmS ribozyme (parent)
chain: AUAAAAGCGCCAGAACUACAGAAAUGUAGUUGACGAGGAGGAGGUUUAUCGAAUUUUCGGCGGAUGCCUCCAAA

What was measured:
Settings in all cases: with glucosamine-6-phosphate
[1] = variants of: B1; assay: kcat; higher = faster cleavage; RNA array
How it was run: (§1)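 E. coli RNA polymerase transcribed barcoded ribozyme variants in situ on sequenced MiSeq chips, which were tracked via a hybridised Cy3 probe at 37 °C. Tiles were imaged over ~14 h after glucosamine-6-phosphate (40 μM to 10 mM) in HEPES/KCl/Mg(OAc)2 buffer was flowed in. Normalised per-tile medians were fit to one- or two-exponential decays for kobs, and kcat and KM came from weighted Michaelis–Menten fits.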

[2] = variants of: B1; assay: KM; higher = weaker cofactor use; RNA array
How it was run: as §1

[3] = variants of: B1; assay: self-cleavage kobs at 40 uM GlcN6P; higher = faster cleavage; RNA array
How it was run: as §1

[4] = variants of: B1; assay: self-cleavage kobs at 160 uM GlcN6P; higher = faster cleavage; RNA array
How it was run: as §1

[5] = variants of: B1; assay: self-cleavage kobs at 640 uM GlcN6P; higher = faster cleavage; RNA array
How it was run: as §1

[6] = variants of: B1; assay: self-cleavage kobs at 2500 uM GlcN6P; higher = faster cleavage; RNA array
How it was run: as §1

[7] = variants of: B1; assay: self-cleavage kobs at 10000 uM GlcN6P; higher = faster cleavage; RNA array
How it was run: as §1

Variant | kcat [1] | KM [2] | self-cleavage kobs at 40 uM GlcN6P [3] | self-cleavage kobs at 160 uM GlcN6P [4] | self-cleavage kobs at 640 uM GlcN6P [5] | self-cleavage kobs at 2500 uM GlcN6P [6] | self-cleavage kobs at 10000 uM GlcN6P [7]
U31A G40C | 0.00121 ± 0.00017 s⁻¹ | 1410 ± 380 µM | 3.09e-05 ± 7.3e-06 s⁻¹ | 0.000105 ± 3e-05 s⁻¹ | 0.00048 ± 0.0001 s⁻¹ | 0.00115 ± 0.00024 s⁻¹ | 0.00101 ± 0.00011 s⁻¹
U65C C67G | 6.8e-05 ± 3.8e-06 s⁻¹ |  |  |  | 5.5e-05 ± 1.4e-05 s⁻¹ |  | 6.72e-05 ± 8.1e-06 s⁻¹
C58U G66C | < 1e-05 s⁻¹ |  |  | < 1e-05 s⁻¹ | < 1e-05 s⁻¹ |  | 
A52G C71G | 0.00014 ± 1.4e-05 s⁻¹ | 431 ± 170 µM |  | 4.09e-05 ± 1.4e-05 s⁻¹ | 7.87e-05 ± 1.1e-05 s⁻¹ | 0.000157 ± 2.2e-05 s⁻¹ | 0.000127 ± 1.2e-05 s⁻¹
G38U G66U | < 1e-05 s⁻¹ |  |  | < 1e-05 s⁻¹ | < 1e-05 s⁻¹ |  | 
C16A G29A | 0.00235 ± 0.00058 s⁻¹ | 1790 ± 630 µM | 7.39e-05 ± 1.3e-05 s⁻¹ | 0.000175 ± 3.3e-05 s⁻¹ | 0.000549 ± 9.9e-05 s⁻¹ | 0.00127 ± 0.00024 s⁻¹ | 0.00227 ± 0.00042 s⁻¹
G29U A64U | 1.06e-05 ± 2.5e-07 s⁻¹ | 4920 ± 300 µM |  | < 1e-05 s⁻¹ | < 1e-05 s⁻¹ |  | 
G62C U69G | 1.62e-05 ± 2.9e-06 s⁻¹ |  |  |  |  |  | 
U47G U54G | 0.0073 ± 0.0022 s⁻¹ | 724 ± 320 µM | 0.00053 ± 8.3e-05 s⁻¹ | 0.000915 ± 0.00023 s⁻¹ | 0.00367 ± 0.00086 s⁻¹ | 0.0063 ± 0.0018 s⁻¹ | 0.00685 ± 0.0015 s⁻¹
U31G A64C | 2.01e-05 ± 3.9e-06 s⁻¹ |  |  |  |  |  | 
U49G C71U | 0.00102 ± 0.00022 s⁻¹ | 2160 ± 970 µM | 3.07e-05 ± 9.2e-06 s⁻¹ |  | 0.000246 ± 2.9e-05 s⁻¹ | 0.00041 ± 6.9e-05 s⁻¹ | 0.000902 ± 7.8e-05 s⁻¹
C19A C67G | 0.000349 ± 4.1e-05 s⁻¹ | 295 ± 93 µM |  | 0.000171 ± 4.8e-05 s⁻¹ | 0.000207 ± 7.2e-05 s⁻¹ | 0.000309 ± 7.1e-05 s⁻¹ | 0.000347 ± 7.3e-05 s⁻¹
C11A G44U G59U | 0.000238 ± 5.3e-06 s⁻¹ | 1330 ± 77 µM |  |  | 7.85e-05 ± 2.2e-05 s⁻¹ | 0.00015 ± 4.7e-05 s⁻¹ | 0.000212 ± 4e-05 s⁻¹
G32A C58G | 0.000211 ± 4.8e-05 s⁻¹ | 6460 ± 3200 µM |  |  |  | 5.76e-05 ± 1.7e-05 s⁻¹ | 0.000129 ± 1.7e-05 s⁻¹
C61U U69A | 4.43e-05 ± 1.5e-05 s⁻¹ |  |  | 3.86e-05 ± 1.8e-05 s⁻¹ | 4.2e-05 ± 1.3e-05 s⁻¹ | 6.76e-05 ± 1.9e-05 s⁻¹ | 
G9U C34G C58G C68U | 4.14e-05 ± 1.9e-05 s⁻¹ |  |  | 5.81e-05 ± 2.8e-05 s⁻¹ |  |  | 

Variant | kcat [1] | KM [2] | self-cleavage kobs at 40 uM GlcN6P [3] | self-cleavage kobs at 160 uM GlcN6P [4] | self-cleavage kobs at 640 uM GlcN6P [5] | self-cleavage kobs at 2500 uM GlcN6P [6] | self-cleavage kobs at 10000 uM GlcN6P [7]
A48G A53C | 5.9e-05 ± 9.7e-06 s⁻¹ |  |  |  |  | 7.97e-05 ± 1.7e-05 s⁻¹ | 5.4e-05 ± 7.2e-06 s⁻¹
A39C U45A | 0.0045 ± 0.001 s⁻¹ | 1430 ± 550 µM | 0.000226 ± 5.6e-05 s⁻¹ | 0.000456 ± 9.8e-05 s⁻¹ | 0.00118 ± 0.0002 s⁻¹ | 0.00392 ± 0.001 s⁻¹ | 0.00397 ± 0.00058 s⁻¹
A12C | 0.042 ± 0.0066 s⁻¹ | 2170 ± 410 µM | 0.000794 ± 1.3e-05 s⁻¹ | 0.00261 ± 0.00016 s⁻¹ | 0.00858 ± 0.00027 s⁻¹ | 0.0195 ± 0.00085 s⁻¹ | 0.0393 ± 0.0013 s⁻¹
A39C C70U | 0.000652 ± 0.00018 s⁻¹ | 1210 ± 530 µM | 4.36e-05 ± 6.9e-06 s⁻¹ | 7.31e-05 ± 9.7e-06 s⁻¹ | 0.00019 ± 2.5e-05 s⁻¹ | 0.000461 ± 8.2e-05 s⁻¹ | 0.000616 ± 7.3e-05 s⁻¹
G37C A53U | 2.09e-05 ± 2.3e-06 s⁻¹ |  | < 1e-05 s⁻¹ |  |  | 2.18e-05 ± 9.8e-06 s⁻¹ | 1.92e-05 ± 8.5e-06 s⁻¹
C19A G40C | 0.00125 ± 0.00032 s⁻¹ | 832 ± 360 µM | 7.99e-05 ± 1.9e-05 s⁻¹ | 0.000173 ± 5.2e-05 s⁻¹ | 0.000434 ± 0.00012 s⁻¹ | 0.00156 ± 0.00041 s⁻¹ | 0.00113 ± 0.00023 s⁻¹
U30G U46C | 0.000516 ± 3.6e-05 s⁻¹ | 1240 ± 170 µM |  | 6.38e-05 ± 2.1e-05 s⁻¹ | 0.000167 ± 3.1e-05 s⁻¹ | 0.000377 ± 7.4e-05 s⁻¹ | 0.000443 ± 8.5e-05 s⁻¹
U65A G66A C67G C71U | 8.39e-05 ± 1.9e-05 s⁻¹ |  |  |  |  | 8.49e-05 ± 2.1e-05 s⁻¹ | 6.69e-05 ± 1.9e-05 s⁻¹
G41U A53G | 0.00129 ± 0.00028 s⁻¹ | 291 ± 120 µM | 0.000167 ± 2.7e-05 s⁻¹ | 0.000362 ± 7.8e-05 s⁻¹ | 0.00133 ± 0.0002 s⁻¹ | 0.000959 ± 0.00015 s⁻¹ | 0.00153 ± 0.00029 s⁻¹
A33C U54A | 0.00129 ± 0.00021 s⁻¹ | 7810 ± 1700 µM |  | 4.1e-05 ± 1.7e-05 s⁻¹ | 9.44e-05 ± 1.2e-05 s⁻¹ | 0.000323 ± 6.1e-05 s⁻¹ | 0.000722 ± 0.0001 s⁻¹
G62U C67A | < 1e-05 s⁻¹ |  | < 1e-05 s⁻¹ |  |  |  | < 1e-05 s⁻¹
A15U U55C | 0.00268 ± 0.0003 s⁻¹ | 915 ± 160 µM | 0.000117 ± 2.1e-05 s⁻¹ | 0.00039 ± 6.4e-05 s⁻¹ | 0.00136 ± 0.00052 s⁻¹ | 0.00158 ± 0.00036 s⁻¹ | 0.00269 ± 0.00038 s⁻¹
G40C C58A | 1.41e-05 ± 2.3e-06 s⁻¹ |  |  | < 1e-05 s⁻¹ |  |  | 
A36C C58G | 2.16e-05 ± 5.9e-06 s⁻¹ |  |  |  |  |  | 
U65A G66U | 0.00046 ± 4.8e-05 s⁻¹ | 3170 ± 620 µM |  |  | 7.65e-05 ± 9.6e-06 s⁻¹ | 0.00023 ± 3.3e-05 s⁻¹ | 0.000342 ± 3.1e-05 s⁻¹
U69A C71A | 2.44e-05 ± 5.9e-06 s⁻¹ |  |  |  |  |  | 
